In the RNAGym collection of RNA variant scans (doi:10.1073/pnas.2313332121):

B1: TPR t1 (parent)
chain: GACCAAUCUGCCCUCAGAGCUCGAGAACAUCUUCGGAUGCAGAGGAGGCAGGCUUCGGUGGCGCGAUAGCGCCAACGUCCUCAACCUCCAAUGCAUCCCACCACAUGAUGAUGCCUGAAGAGCCUUGGUUUUUUG

Variants of: B1
Test: polymerase ribozyme fitness, log enrichment relative to wild type (log ratio); higher = more active; in vitro selection for triplet polymerase activity
Outline: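 Only genotypes with ≥10 input reads and ≥1 read per output were kept after Illumina sequencing of input and output libraries. These libraries were PCR-built, transcribed mutants of each subunit of a heterodimeric triplet polymerase ribozyme, each put through one triplicate in vitro selection round with frozen incubation at −7 °C, gel excision of extended constructs, streptavidin-bead capture and RT-PCR. Fitness is a logarithmic ratio of genotype enrichment to wild-type enrichment, from inverse-variance-weighted replicate averages, with the logarithm in base 2.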

Row | Variant | polymerase ribozyme fitness (log ratio)
1 | C13A G44C C56U C124A | 0.969
2 | C12U G71A C94U | -1.26
3 | C12U A18U G47C U130A | -4.44
4 | C12G C73A C88U G122A | -1.14
5 | C12U G42C C62A G120U U126C | -1.07
6 | C12U G113A U125A | -0.67
7 | C13G A37C U112C | -0.647
8 | C13A G39C G120A | -0.0336
9 | C12U G35A G57C C88U | -4.97
10 | C12U G65U | -4.93
11 | C12G G58U A90U A105U | -4.19
12 | C12U C34A G71U U78G U125A | -3.95
13 | C12U G135U | 0.000607
14 | C12U G44U G47C C89A A90C U116A U131G | -3.02
15 | C12G A24U C76A C82A G120C | -6.17
16 | C12A U126C | -2.01
17 | C12U C64U | 0.0316
18 | C12U C64A | -5.62
19 | C13A G42A G77U U131C | -3.87
20 | C12U C70U G71A | -0.916
21 | C12G A46G G128C U131A | -2.32
22 | C12U G63A U106G | -3.38
23 | C12G G120C A121G | -1.12
24 | C12U U133G | -0.256

Row | Variant | polymerase ribozyme fitness (log ratio)
25 | C13A A37C A118U | -1.38
26 | C12U U14G U32C G51A C56U G57U G127A | -5.28
27 | C12U G69A | -2
28 | C12U A29G C73G U92C C94A | -5.22
29 | C12U G42U C70U U81C G120U | -1.9
30 | C13A U38A C53U C89A | -4.39
31 | C13G A43U C101U | -3.57
32 | C13A C56G C89A A90U | -3.98
33 | C13A C62G | -2.67
34 | C12U G51A C101U | -2.14
35 | C12U C31G | -5.12
36 | C12U U130G | 0.00659
37 | C12G C31U C49U G51U C70U C101A U109G | -6.92
38 | C12U C89G | -0.883
39 | C12A U14G G71U | -2.39
40 | C12U A16U G63C A105C C124G | -2.25
41 | C13A C72G C94A C124A | 0.278
42 | C12U C15G G63U G120U | -0.846
43 | C12U C22G U38A C79U G122A | -3.65
44 | C13G A16C C85G A121C | -3.75
45 | C13A A29G U32A G39A G120A U126A U130G U134C | -2.77
46 | C13G A37U U38C C62U | -4.23
47 | C12A U14A C28U C85U | -3.93
48 | C13A A29G C73G C79U U125G | -4.63

Row | Variant | polymerase ribozyme fitness (log ratio)
49 | C12G G71C U96A A108G C123G | -4.58
50 | C12U G45A U96C G110U G135A | -2.06
51 | C12G G51C | -3.21
52 | C12U G48A U54G A121U U129G | 0.00313
53 | C12G C88A | 0.489
54 | C12G A29U C49G C82U C115U U133A | -2.06
55 | C12U C40U G42C C80A C88G C102A A111G C123U U134G | -6.19
56 | C13A G36C G60U A66U A95C | -6.15
57 | C12U C62U C70G G93A | -5.44
58 | C12U A50G G71U U130C | 0.0947
59 | C12U C49G G113U C114A U129A | -4.7
60 | C12U G52A G63C U112A G120A | -0.326
61 | C13G A26U G47A C82U | -5.11
62 | C13A G39U C56A | -2.45
63 | C13A C94A C124A | 0.414
64 | C13A G61A C82U C124U | -0.178
65 | C12G C85G | -1.08
66 | C12G C72A | -0.123
67 | C12G G60A C85G G117A U131A | -1.29
68 | C13A G110C | -4.52
69 | C12G G19C | -1.64
70 | C12U U78C G110U | -1.38
71 | C13A C124U U132A | -1.61
72 | C12U C13U A50U U78G U131C | -0.743

Row | Variant | polymerase ribozyme fitness (log ratio)
73 | C12U A50C C64U A66G U81C | -4.8
74 | C12U C70U U129C | -0.46
75 | C12G A37U A105C U112C | -0.116
76 | C12G A41G C72U C102U | -2.31
77 | C12G A83G C88G U125G | -2.21
78 | C13A C20U G42U G44A C102U G127C | -6.04
79 | C12G U32A A37U | -3.65
80 | C12G C62U A68C U116C A121C U129A | -6.48
81 | C12U G45U | -0.901
82 | C12U G45A | -1.24
83 | C12U C20U C22A G45U C70U A83U A118U | -6.7
84 | C13A G71A G120A A121U | -0.704
85 | C13G A50G G51C G57U A74U | -3.43
86 | C12A U81A U133A | -1.05
87 | C12U G39C C64U A84U | -0.905
88 | C12U C53U C80G C82U A90G | -2.24
89 | C12G A74U | -0.266
90 | C12G U14G G107U C114U G120U C123U U133A | -4.14
91 | C13A G60U A91U G120A | -2.31
92 | C12U C22U C28U C124A | -4.02
93 | C12U G77C | 0.201
94 | C12G C56G C70G | -3.6
95 | C12G G120C | 1.23
96 | C12G C80U | 0.429

Row | Variant | polymerase ribozyme fitness (log ratio)
97 | C12U C70U C80A C97U A121G U133A | -3.61
98 | C12U G71C C82G | -1.53
99 | C12G C73A C79A C86U | -0.241
100 | C12U A18G G63C C88G A90C C114A G122A | -5.09
101 | C12U C13U C89U U133G | -0.318
102 | C12U U55C G71A A90G G113U | -2.97
103 | C12U C13U C79G | -1.13
104 | C12U G47C G69U G107A | -4.81
105 | C12U G17C C97G C115G | -3.25
106 | C12U G120A | 1.63
107 | C12U G120C | 2
108 | C12G U14G G57A G113U | -7.24
109 | C12U C72G | 0.149
110 | C12U C72U | -0.537
111 | C12G C124A | 1.61
112 | C13A C70A | -3.18
113 | C12U G35A C62U G117A | -6.59
114 | C12U G42U A84C U116A | -3.42
115 | C12G C13A C72G C124U | -0.0514
116 | C12U C85G | -0.35
117 | C12G G52A C88U G120U | 1.84
118 | C13A C86A | -3.09
119 | C12U C56U | 0.248
120 | C12U A91U | -1.85

Row | Variant | polymerase ribozyme fitness (log ratio)
121 | C12G U14C G17U C22G C49G G117C U130A | -6.43
122 | C12U A27G C40U C56U C79A U81A C124U | -2.87
123 | C12U C13U C40G C76A G77A U131C | -0.917
124 | C13A C40A | -2.4
125 | C12G C15G A46U A74G U78A C114A | -6.73
126 | C12U C62A C73U G77U | -3.65
127 | C13A A29G C53U U106C | -5.28
128 | C12G G61U G107U | -4.66
129 | C12G G93A C94U | -1.83
130 | C13A C104U A118C C124A | -0.374
131 | C12G A46G G63C C115G | -4.6
132 | C12G G44A G48U A103G U112A C115A | -6.92
133 | C13A A46G U125G | -3.19
134 | C12U C40G | -0.0831
135 | C12A U130C U131C | -0.148
136 | C12U C73A | 0.441
137 | C12U C73U | 0.0527
138 | C12U A27C | -2.1
139 | C13A G47A | -2.5
140 | C12G G17U G57C C62A C115G U129C U132C | -3.27
141 | C13A C56U | -1.43
142 | C13A G19A G52C C76G A118U C124A U133A | -4.56
143 | C12U C49G | -0.764
144 | C12U C56A G69A | -2.89

Row | Variant | polymerase ribozyme fitness (log ratio)
145 | C12G A108G | -1.2
146 | C13A G58C | -1.37
147 | C12U U14A C40A A105C | -3.92
148 | C12G C89A | -1.41
149 | C12G C15G G45A C49G C85U C124U | -2.82
150 | C12G C115G | -2.46
151 | C12U C97U | -0.793
152 | C13A G39C U59G C104U | -1.47
153 | C13G A37G A41C A121U | -0.739
154 | C12G U59G G60U A95U G110C | -5.19
155 | C13G A37G G48C | -3.17
156 | C12G C34A C56U | -2.05
157 | C12G G47C U96A C104A | -4.59
158 | C12U A26U G93U | -3.6
159 | C12U G63A C124G G127U | 1.79
160 | C12U U14A C40A C72U A105C | -4.37
161 | C13A A90G A95G U133G | -1.7
162 | C12G A16G C53A C80U | -5.01
163 | C12U U54A C56A A91C C115U | -1.35
164 | C12U C53G A90C | -1.61
165 | C12U U92G U96A | -2.63
166 | C12U G19U A90C | -2.37
167 | C12U U87C | 1.04
